Substrate: CC(=O)N[C@H]1[C@H]([C@H](O)[C@H](O)CO)O[C@](OP(=O)(O)OC[C@H]2O[C@@H](n3ccc(N)nc3=O)[C@H](O)[C@@H]2O)(C(=O)O)C[C@@H]1O
Assay: Binding affinity to recombinant human N-terminal 6His-tagged ST6Gal-1 (Glu44 to Cys406 residues)

B1: Beta-galactoside alpha-2,6-sialyltransferase 1 (Homo sapiens), P15907 (protein)
chain: MIHTNLKKKFSCCVLVFLLFAVICVWKEKKKGSYYDSFKLQTKEFQVLKSLGKLAMGSDSQSVSSSSTQDPHRGRQTLGSLRGLAKAKPEASFQVWNKDSSSKNLIPRLQKIWKNYLSMNKYKVSYKGPGPGIKFSAEALRCHLRDHVNVSMVEVTDFPFNTSEWEGYLPKESIRTKAGPWGRCAVVSSAGSLKSSQLGREIDDHDAVLRFNGAPTANFQQDVGTKTTIRLMNSQLVTTEKRFLKDSLYNEGILIVWDPSVYHSDIPKWYQNPDYNFFNNYKTYRKLHPNQPFYILKPQMPWELWDILQEISPEEIQPNPPSSGMLGIIIMMTLCDQVDIYEFLPSKRKTDVCYYYQKFFDSACTMGAYHPLLYEKNLVKHLNQGTDEDIYLLGKATLPGFRTIHC
  Km: 37.2 µM

— ChEMBL document CHEMBL4725261, “Design, synthesis and evaluation of carbamate-linked uridyl-based inhibitors of human ST6Gal I” (Bioorg Med Chem, 2020)
